Square brackets hold non-standard residues; d marks the D form. GABA = NCCCC(=O)O
What was measured:
[1] = biological target: T1, recombinant human β-catenin, full-length (human, UniProt P35222 1-781, limits assumed); assay: SPR (Biacore 3000), recombinant β-catenin immobilized, five Nb concentrations, 1:1 Langmuir
T1 construct: Purified from E. coli; also called full-length β-catenin
T1 sequence (looked up): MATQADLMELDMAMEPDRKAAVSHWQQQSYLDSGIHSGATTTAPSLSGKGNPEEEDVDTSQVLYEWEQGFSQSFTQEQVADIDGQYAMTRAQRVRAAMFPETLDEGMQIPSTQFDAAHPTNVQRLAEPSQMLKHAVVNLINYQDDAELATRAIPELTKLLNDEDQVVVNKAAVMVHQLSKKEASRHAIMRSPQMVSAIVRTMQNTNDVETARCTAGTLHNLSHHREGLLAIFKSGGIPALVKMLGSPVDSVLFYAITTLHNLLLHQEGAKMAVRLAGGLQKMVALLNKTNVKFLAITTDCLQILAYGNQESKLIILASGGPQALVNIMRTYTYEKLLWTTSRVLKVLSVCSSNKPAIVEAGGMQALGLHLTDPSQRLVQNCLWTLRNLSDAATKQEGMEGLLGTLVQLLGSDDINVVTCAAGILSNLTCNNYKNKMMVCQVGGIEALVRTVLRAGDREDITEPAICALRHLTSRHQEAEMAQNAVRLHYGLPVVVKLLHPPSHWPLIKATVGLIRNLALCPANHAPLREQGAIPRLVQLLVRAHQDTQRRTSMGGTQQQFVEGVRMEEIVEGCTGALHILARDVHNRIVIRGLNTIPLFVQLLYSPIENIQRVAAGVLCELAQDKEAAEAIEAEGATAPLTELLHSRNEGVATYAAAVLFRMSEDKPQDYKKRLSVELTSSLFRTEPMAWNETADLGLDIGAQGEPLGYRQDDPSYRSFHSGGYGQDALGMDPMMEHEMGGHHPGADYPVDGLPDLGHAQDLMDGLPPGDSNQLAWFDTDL
Description: The dissociation was induced by two injections of regeneration solution of 15 μl each at the identical flow rates.

[2] = biological target: T2, BC2T W10Q peptide (BC2TW10X library) (human); assay: BC2TW10X library pulldown with immobilized Nb, LC-MS of the supernatant
T2 construct: also called W10 permutant Q
T2 peptide: Ac-PDRKAAVSHQQQ-NH2
Description: (§1) To investigate the binding specificity of the BC2T and derived mutants peptide libraries for each amino acid position of the sequence […] (SEQ ID NO:4) were synthesized with acetyl and amide groups located at the N-termini or C-termini respectively (Intavis). […] Incubations were performed in 300 μl PBS/0.01% CHAPS for 1 h on a HulaMixer (Life Technologies). Subsequent to a centrifugation step 10 μl supernatant were analyzed in a LC-MS procedure. Peptides were separated using an UltiMate3000 RSLCnano System (Thermo Scientific), composed of a C18 PepMap100μ-Precolumn (300 μm×5 mm; particle size: 5 μm; pore size: 100 Å—Thermo Scientific) and a C18 analytical column (Acclaim Rapid Separation LC (RSLC) Column: 150 mm×5 mm; particle size: 2.2 μm; pore size: 100 Å—Thermo Scientific). A step gradient was applied starting at 8% and ending after 20 min at 30% eluent B (80% acetonitrile, 20% H₂O, 0.1% formic acid). Peptides were analyzed using a FULL-MS-strategy detected by a Q Exactive Plus mass spectrometer (Thermo Scientific). As maximal injection time 100 ms was chosen while setting the AGC target to 3E6. The resolution was set to 70.000. Half-maximal signal areas were referenced to control precipitation approaches using a GFP-specific nanobody immobilized on agarose beads. All experiments were done in triplicates.

[3] = biological target: T3, BC2T W10P peptide (BC2TW10X library) (human); assay: as above
T3 construct: also called W10 permutant P
T3 peptide: Ac-PDRKAAVSHPQQ-NH2
Description: as §1

[4] = biological target: T4, BC2T W10Y peptide (BC2TW10X library) (human); assay: as above
T4 construct: also called W10 permutant Y
T4 peptide: Ac-PDRKAAVSHYQQ-NH2
Description: as §1

[5] = biological target: T5, BC2T W10L peptide (BC2TW10X library) (human); assay: as above
T5 construct: Isobaric with the isoleucine peptide; also called W10 permutant L
T5 peptide: Ac-PDRKAAVSHLQQ-NH2
Description: as §1

[6] = biological target: T6, BC2T W10V peptide (BC2TW10X library) (human); assay: as above
T6 construct: also called W10 permutant V
T6 peptide: Ac-PDRKAAVSHVQQ-NH2
Description: as §1

[7] = biological target: T7, BC2T W10C peptide (BC2TW10X library) (human, also: Abu described as gamma-amino butyric acid); assay: as above
T7 construct: also called W10 permutant C(Abu)
T7 peptide: Ac-PDRKAAVSH[GABA]QQ-NH2
Description: as §1

[8] = biological target: T8, BC2T W10F peptide (BC2TW10X library) (human); assay: as above
T8 construct: also called W10 permutant F
T8 peptide: Ac-PDRKAAVSHFQQ-NH2
Description: as §1

[9] = biological target: T9, BC2T W10H peptide (BC2TW10X library) (human); assay: as above
T9 construct: also called W10 permutant H
T9 peptide: Ac-PDRKAAVSHHQQ-NH2
Description: as §1

[10] = biological target: T10, BC2T W10R peptide (BC2TW10X library) (human); assay: as above
T10 construct: also called W10 permutant R
T10 peptide: Ac-PDRKAAVSHRQQ-NH2
Description: as §1

[11] = biological target: T11, BC2T W10K peptide (BC2TW10X library) (human); assay: as above
T11 construct: also called W10 permutant K
T11 peptide: Ac-PDRKAAVSHKQQ-NH2
Description: as §1

[12] = biological target: T12, BC2T W10T peptide (BC2TW10X library) (human); assay: as above
T12 construct: also called W10 permutant T
T12 peptide: Ac-PDRKAAVSHTQQ-NH2
Description: as §1

[13] = biological target: T13, BC2T W10E peptide (BC2TW10X library) (human); assay: as above
T13 construct: also called W10 permutant E
T13 peptide: Ac-PDRKAAVSHEQQ-NH2
Description: as §1

[14] = biological target: T14, BC2T W10M peptide (BC2TW10X library) (human); assay: as above
T14 construct: also called W10 permutant M
T14 peptide: Ac-PDRKAAVSHMQQ-NH2
Description: as §1

[15] = biological target: T15, BC2T W10D peptide (BC2TW10X library) (human); assay: as above
T15 construct: also called W10 permutant D
T15 peptide: Ac-PDRKAAVSHDQQ-NH2
Description: as §1

[16] = biological target: T16, BC2T W10N peptide (BC2TW10X library) (human); assay: as above
T16 construct: also called W10 permutant N
T16 peptide: Ac-PDRKAAVSHNQQ-NH2
Description: as §1

B1: BC2 nanobody (VHH)
VHH: QVQLVESGGGLVQPGGSLTLSCTASGFTLDHYDIGWFRQAPGKEREGVSCINNSDDDTYYADSVKGRFTIFMDNAKDTVYLQMNSLKPEDTAIYYCAEARGCKRGRYEYDFWGQGTQVTVSS
notes: Alpaca VHH, 122 aa; also called BC2-Nb; BC2 nanotrap (BC2-Nb immobilized on agarose/Sepharose beads); not shown: C-terminal 6xHis-tag added by the pHEN6 vector
- Kd [1]: ~3.1 nM
- binding result [2]: no binding
- binding result [3]: no binding
- binding result [4]: no binding
- binding result [5]: no binding
- binding result [6]: no binding
- binding result [7]: no binding
- binding result [8]: no binding
- binding result [9]: no binding
- binding result [10]: no binding
- binding result [11]: no binding
- binding result [12]: no binding
- binding result [13]: no binding
- binding result [14]: no binding
- binding result [15]: no binding
- binding result [16]: no binding
